Test results reported in patent US20180185504A1.
Blank lines part the entries; values can stand above or below the substance they belong to.

Key:
[1] = target: human prolactin (PRL) (human) (UniProt P01236); test: ELISA: dimeric PRLR (3.38 pM to 200 nM) on plate-coated human PRL (1 µg/mL), HRP anti-Fc-gamma detection
[2] = target: human prolactin receptor (PRLR) on cells (human) (UniProt P16471); test: cell-based or functional assay
[3] = target: mouse PRLR construct with an HA tag on HEK293/mPRLR cells (mouse) (UniProt Q08501); test: FACS on HEK293/mPRLR cells
Sequence of mouse PRLR construct with an HA tag on HEK293/mPRLR cells (mouse) (Q08501 20-608): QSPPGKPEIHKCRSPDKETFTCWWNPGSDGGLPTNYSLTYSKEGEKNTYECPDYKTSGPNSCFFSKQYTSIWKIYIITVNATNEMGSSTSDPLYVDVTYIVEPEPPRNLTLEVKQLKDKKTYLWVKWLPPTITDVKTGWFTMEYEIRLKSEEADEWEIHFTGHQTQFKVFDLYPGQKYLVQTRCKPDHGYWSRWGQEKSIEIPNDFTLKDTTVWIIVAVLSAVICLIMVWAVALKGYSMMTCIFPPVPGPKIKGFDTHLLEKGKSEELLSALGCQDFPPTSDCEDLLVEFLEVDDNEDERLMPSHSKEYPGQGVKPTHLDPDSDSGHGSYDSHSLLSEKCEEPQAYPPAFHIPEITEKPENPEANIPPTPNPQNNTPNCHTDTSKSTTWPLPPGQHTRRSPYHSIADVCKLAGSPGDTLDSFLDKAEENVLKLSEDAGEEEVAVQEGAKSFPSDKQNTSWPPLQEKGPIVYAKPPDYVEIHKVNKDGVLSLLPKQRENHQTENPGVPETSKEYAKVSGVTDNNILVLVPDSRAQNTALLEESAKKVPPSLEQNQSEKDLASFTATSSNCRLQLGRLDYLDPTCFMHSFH

Sequence of human prolactin receptor (PRLR) on cells (human) (P16471 25-622 limits assumed): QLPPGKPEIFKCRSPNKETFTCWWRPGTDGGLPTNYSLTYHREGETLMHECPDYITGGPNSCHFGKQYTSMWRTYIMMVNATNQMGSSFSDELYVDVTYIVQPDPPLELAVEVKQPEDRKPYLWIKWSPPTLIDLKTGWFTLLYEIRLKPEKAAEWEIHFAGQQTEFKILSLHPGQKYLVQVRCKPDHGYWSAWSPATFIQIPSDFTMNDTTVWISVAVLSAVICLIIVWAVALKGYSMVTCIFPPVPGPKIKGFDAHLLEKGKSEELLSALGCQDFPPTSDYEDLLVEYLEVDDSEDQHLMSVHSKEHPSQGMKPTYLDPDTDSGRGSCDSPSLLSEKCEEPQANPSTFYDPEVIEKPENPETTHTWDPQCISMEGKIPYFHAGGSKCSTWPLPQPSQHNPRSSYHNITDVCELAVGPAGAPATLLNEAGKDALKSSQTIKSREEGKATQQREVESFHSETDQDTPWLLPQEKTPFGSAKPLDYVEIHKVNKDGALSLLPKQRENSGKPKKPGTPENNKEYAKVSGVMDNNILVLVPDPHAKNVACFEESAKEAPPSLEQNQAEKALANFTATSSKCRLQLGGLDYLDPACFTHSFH
Sequence of human prolactin (PRL) (human) (P01236 29-227 limits assumed): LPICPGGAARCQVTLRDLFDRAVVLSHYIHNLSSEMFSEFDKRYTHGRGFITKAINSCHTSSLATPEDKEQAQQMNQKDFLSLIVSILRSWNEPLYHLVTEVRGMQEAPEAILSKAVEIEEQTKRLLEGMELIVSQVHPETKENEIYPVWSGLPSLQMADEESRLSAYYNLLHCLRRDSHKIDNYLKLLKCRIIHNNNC

EC50 [1]: 5.7 nM
Substance: dimeric form of cynomolgus monkey (Macaca fascicularis) PRLR (Example 12 ELISA) (Fc fusion)

EC50, STAT5-luciferase reporter in HEK293/PRLR/STAT5-Luc cells [2]: 2.1 nM
Substance: human prolactin (PRL) (from UniProt P01236 29-227) (ligand)

FACS Cell Binding (Fold Above Background) [3]: 1 fold
Substance: Isotype Ctrl I (antibody)
